This is an account of results in publication PMC3310290.

This experiment deals with fibrin (Homo sapiens) (UniProt P02671). Briefly: ELISA. A general note: An ELISA detects its analyte on a solid surface through an enzyme-linked reagent.

Chain of fibronectin, P02751 (P02751 32-2477): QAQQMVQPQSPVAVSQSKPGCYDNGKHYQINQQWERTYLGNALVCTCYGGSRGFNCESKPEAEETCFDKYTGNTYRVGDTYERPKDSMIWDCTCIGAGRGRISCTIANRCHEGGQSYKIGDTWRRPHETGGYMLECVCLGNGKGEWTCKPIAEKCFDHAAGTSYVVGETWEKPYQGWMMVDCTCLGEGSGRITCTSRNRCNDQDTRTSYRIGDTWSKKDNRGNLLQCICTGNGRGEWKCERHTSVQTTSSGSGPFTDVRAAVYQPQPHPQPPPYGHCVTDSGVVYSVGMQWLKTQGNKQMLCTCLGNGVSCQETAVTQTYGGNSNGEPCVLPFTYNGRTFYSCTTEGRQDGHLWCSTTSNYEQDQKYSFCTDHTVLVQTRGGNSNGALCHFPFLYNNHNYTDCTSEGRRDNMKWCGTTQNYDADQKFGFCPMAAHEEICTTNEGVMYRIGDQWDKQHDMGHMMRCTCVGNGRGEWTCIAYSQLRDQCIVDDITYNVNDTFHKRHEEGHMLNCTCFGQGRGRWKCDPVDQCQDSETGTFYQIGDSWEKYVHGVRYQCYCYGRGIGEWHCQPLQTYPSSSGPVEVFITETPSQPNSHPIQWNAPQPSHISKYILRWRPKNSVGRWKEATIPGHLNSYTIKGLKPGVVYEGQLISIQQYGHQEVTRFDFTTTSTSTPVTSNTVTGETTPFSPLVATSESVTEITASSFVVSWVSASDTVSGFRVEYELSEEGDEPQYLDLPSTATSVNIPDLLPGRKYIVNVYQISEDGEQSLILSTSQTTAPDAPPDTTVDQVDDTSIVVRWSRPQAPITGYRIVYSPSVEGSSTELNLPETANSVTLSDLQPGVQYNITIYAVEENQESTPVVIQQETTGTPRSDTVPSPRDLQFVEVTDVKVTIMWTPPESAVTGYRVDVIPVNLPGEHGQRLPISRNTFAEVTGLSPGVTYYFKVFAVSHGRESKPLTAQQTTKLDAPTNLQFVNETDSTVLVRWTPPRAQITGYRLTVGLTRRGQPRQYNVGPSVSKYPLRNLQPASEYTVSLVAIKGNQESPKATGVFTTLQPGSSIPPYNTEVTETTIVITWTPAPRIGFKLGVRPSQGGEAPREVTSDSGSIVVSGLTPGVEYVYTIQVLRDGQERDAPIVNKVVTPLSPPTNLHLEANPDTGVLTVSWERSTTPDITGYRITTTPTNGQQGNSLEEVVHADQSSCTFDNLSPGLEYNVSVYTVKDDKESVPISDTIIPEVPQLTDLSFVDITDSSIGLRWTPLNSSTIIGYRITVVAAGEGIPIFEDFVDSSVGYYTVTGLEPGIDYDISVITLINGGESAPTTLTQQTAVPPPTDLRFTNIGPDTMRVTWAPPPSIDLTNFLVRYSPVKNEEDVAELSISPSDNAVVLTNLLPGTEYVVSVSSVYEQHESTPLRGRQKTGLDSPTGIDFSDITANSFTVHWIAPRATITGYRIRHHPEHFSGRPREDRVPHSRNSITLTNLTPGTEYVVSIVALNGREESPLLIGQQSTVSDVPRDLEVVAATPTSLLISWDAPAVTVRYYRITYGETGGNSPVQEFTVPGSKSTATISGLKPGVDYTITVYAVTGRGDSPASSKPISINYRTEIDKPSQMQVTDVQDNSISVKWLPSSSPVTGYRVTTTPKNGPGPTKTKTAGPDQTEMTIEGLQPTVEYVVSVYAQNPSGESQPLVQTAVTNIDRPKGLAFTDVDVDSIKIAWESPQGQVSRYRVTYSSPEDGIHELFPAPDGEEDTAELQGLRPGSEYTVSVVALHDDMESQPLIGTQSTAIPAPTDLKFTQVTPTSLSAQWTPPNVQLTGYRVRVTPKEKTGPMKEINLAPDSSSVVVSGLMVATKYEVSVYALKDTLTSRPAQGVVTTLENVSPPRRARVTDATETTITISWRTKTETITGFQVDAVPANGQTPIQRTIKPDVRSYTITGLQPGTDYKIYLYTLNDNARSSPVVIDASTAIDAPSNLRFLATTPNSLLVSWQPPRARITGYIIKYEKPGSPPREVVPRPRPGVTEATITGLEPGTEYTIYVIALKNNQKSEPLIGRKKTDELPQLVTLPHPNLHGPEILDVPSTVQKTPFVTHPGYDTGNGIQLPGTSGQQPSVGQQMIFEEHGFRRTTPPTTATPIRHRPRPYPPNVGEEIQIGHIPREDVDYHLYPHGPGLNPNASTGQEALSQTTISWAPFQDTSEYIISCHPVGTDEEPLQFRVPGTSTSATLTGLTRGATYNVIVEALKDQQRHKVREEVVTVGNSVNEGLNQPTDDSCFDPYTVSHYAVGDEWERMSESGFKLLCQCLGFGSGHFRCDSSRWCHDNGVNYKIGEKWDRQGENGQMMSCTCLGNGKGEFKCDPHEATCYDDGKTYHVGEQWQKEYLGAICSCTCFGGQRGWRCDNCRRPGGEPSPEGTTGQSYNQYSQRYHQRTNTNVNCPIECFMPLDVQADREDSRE

With fibronectin, P02751, the IC50 (as a rule, the midpoint of a concentration-inhibition curve) is 4.9 nM.
